Test results from paper PMC3614804.

What was measured:
FcεRIα (Homo sapiens) = FcεRIα (Homo sapiens) (UniProt P12319); experiment: given as Ka; details: cited from earlier work
[1] = target: extracellular part of FcɛRIα with the transmembrane domain of Her2 at its C-terminus, displayed on the stable CHO cell line FI5F10 (UniProt P12319); experiment: flow cytometry on cells; 7.5 nM IgE alone (positive control), or preincubated with 750 nM QME5 or with equimolar Omalizumab, added to FI5F10 cells; after washing 5 μg/mL FITC_GAH IgE detects membrane-binding IgE

percentage of positive cells (7.5 nM IgE, positive control) [1]	Substance	Kd (FcεRIα (Homo sapiens))
	IgE Cε3 Cε3 (from UniProt P01854)	200 nM
69.1%	human IgE (ligand)	
